# According to patent publication US20220153853A1 (JIANGSU HENGRUI MEDICINE, published 2022):
# Changes are numbered by the printed parent chain.
# B1: hu1803-1 (antibody, human IgG4 S228P, kappa, F234A L235A, V domains shown)
# VH: EVQLVQSGAEVKKPGASVKVSCKASGYTFTDYWIEWVRQAPGQGLEWMGEILPGSTYTNYNEKFKGRVTMTRDTSTSTVYMELSSLRSEDTAVYYCARGLSTLMAVDYFDYWGQGTTVTVSS
# VL: DIQMTQSPSSLSASVGDRVTITCRASQDISNYLNWYQQKPGKAPKLLIYYSSTLHSGVPSRFSGSGSGTDFTLTISSLQPEDFATYYCQQTNIFPWTFGGGTKVEIKR
# B2: hu1803-2 (antibody, human IgG4 S228P, kappa, F234A L235A, V domains shown)
# VH: B1 VH with M70F, R72A, V79A
# VL: B1 VL
# B3: hu1803-3 (antibody, human IgG4 S228P, kappa, F234A L235A, V domains shown)
# VH: B1 VH with M48I, V68A, M70F, R72A, V79A, A97S
# VL: B1 VL
# B4: hu1803-4 (antibody, human IgG4 S228P, kappa, F234A L235A, V domains shown)
# VH: B1 VH with R38K, M48I, V68A, M70F, R72A, T74P, V79A, A97S
# VL: B1 VL
# B5: hu1803-5 (antibody, human IgG4 S228P, kappa, F234A L235A, V domains shown)
# VH: B1 VH
# VL: B1 VL with K42G, P44V, F71Y, Y87F
# B6: hu1803-6 (antibody, human IgG4 S228P, kappa, F234A L235A, V domains shown)
# VH: B1 VH with M70F, R72A, V79A
# VL: B1 VL with K42G, P44V, F71Y, Y87F
# B7: hu1803-7 (antibody, human IgG4 S228P, kappa, F234A L235A, V domains shown)
# VH: B1 VH with M48I, V68A, M70F, R72A, V79A, A97S
# VL: B1 VL with K42G, P44V, F71Y, Y87F
# B8: hu1803-8 (antibody, human IgG4 S228P, kappa, F234A L235A, V domains shown)
# VH: B1 VH with R38K, M48I, V68A, M70F, R72A, T74P, V79A, A97S
# VL: B1 VL with K42G, P44V, F71Y, Y87F
# B9: hu1803-10 (antibody, human IgG4 S228P, kappa, F234A L235A, V domains shown)
# VH: B1 VH with M70F, R72A, V79A
# VL: B1 VL with P44V, F71Y
# B10: hu1803-11 (antibody, human IgG4 S228P, kappa, F234A L235A, V domains shown)
# VH: B1 VH with M48I, V68A, M70F, R72A, V79A, A97S
# VL: B1 VL with P44V, F71Y
# B11: hu1803-12 (antibody, human IgG4 S228P, kappa, F234A L235A, V domains shown)
# VH: B1 VH with R38K, M48I, V68A, M70F, R72A, T74P, V79A, A97S
# VL: B1 VL with P44V, F71Y
# B12: hu1810-1 (antibody, human IgG4 S228P, kappa, F234A L235A, V domains shown)
# VH: QVQLVQSGAEVKKPGSSVKVSCKASGGTFSNYAISWVRQAPGQGLEWMGEIYPTSGNTYYNEKFKGRVTITADKSTSTAYMELSSLRSEDTAVYYCARGVITTVVSTDYFDYWGQGTLVTVSS
# VL: B1 VL with Q27L, S51T, T91G, I93M, F94V, W96Y
# B13: hu1810-2 (antibody, human IgG4 S228P, kappa, F234A L235A, V domains shown)
# VH: B12 VH with K74R, A79M, R98S
# VL: B1 VL with Q27L, S51T, T91G, I93M, F94V, W96Y
# B14: hu1810-3 (antibody, human IgG4 S228P, kappa, F234A L235A, V domains shown)
# VH: B12 VH with M48I, V68A, I70L, K74R, A79M, R98S
# VL: B1 VL with Q27L, S51T, T91G, I93M, F94V, W96Y
# B15: hu1810-4 (antibody, human IgG4 S228P, kappa, F234A L235A, V domains shown)
# VH: B12 VH with R38K, M48I, R67K, V68A, I70L, K74R, A79M, R98S
# VL: B1 VL with Q27L, S51T, T91G, I93M, F94V, W96Y
# B16: hu1810-5 (antibody, human IgG4 S228P, kappa, F234A L235A, V domains shown)
# VH: B12 VH
# VL: B1 VL with Q27L, P44V, S51T, P59S, F71Y, T91G, I93M, F94V, W96Y
# B17: hu1810-6 (antibody, human IgG4 S228P, kappa, F234A L235A, V domains shown)
# VH: B12 VH with K74R, A79M, R98S
# VL: B1 VL with Q27L, P44V, S51T, P59S, F71Y, T91G, I93M, F94V, W96Y
# B18: hu1810-7 (antibody, human IgG4 S228P, kappa, F234A L235A, V domains shown)
# VH: B12 VH with M48I, V68A, I70L, K74R, A79M, R98S
# VL: B1 VL with Q27L, P44V, S51T, P59S, F71Y, T91G, I93M, F94V, W96Y
# B19: hu1810-8 (antibody, human IgG4 S228P, kappa, F234A L235A, V domains shown)
# VH: B12 VH with R38K, M48I, R67K, V68A, I70L, K74R, A79M, R98S
# VL: B1 VL with Q27L, P44V, S51T, P59S, F71Y, T91G, I93M, F94V, W96Y
# B20: hu1810-9 (antibody, human IgG4 S228P, kappa, F234A L235A, V domains shown)
# VH: B12 VH
# VL: DIQMTQSPSSLSASVGDRVTITCRASLDISNYLNWYQLKPGKAVKLLIYYTSTLHSGVSSRFSGSGSGTEYTLTISSLQPEDFATYYCQQGNMVPYTFGGGTKVEIKR
# B21: hu1810-10 (antibody, human IgG4 S228P, kappa, F234A L235A, V domains shown)
# VH: B12 VH with K74R, A79M, R98S
# VL: B20 VL
# B22: hu1810-11 (antibody, human IgG4 S228P, kappa, F234A L235A, V domains shown)
# VH: B12 VH with M48I, V68A, I70L, K74R, A79M, R98S
# VL: B20 VL
# B23: ch1803 (antibody, human IgG4 S228P, kappa, F234A L235A, V domains shown)
# VH: QFQLHQSGAELVKPGASVKLSCKATGYTFTDYWIEWVKQRPGHGLEWIGEILPGSTYTNYNEKFKGRATFTAEPSSSSAYMQLSGLTTEDSAIYYCSRGLSTLMAVDYFDYWGQGTTLTVSS
# VL: DIQMTQTTSSLSASLGDRVTINCRASQDISNYLNWYQQKPDGTVKLLIYYSSTLHSGVPSRFSGSGSGTDYSLTISHLEQEDIATYFCQQTNIFPWTFGGGTKLEIRT
# notes: IgG4-AA / kappa chimeric antibody
# B24: ch1817 (antibody, human IgG4 S228P, kappa, F234A L235A, V domains shown)
# VH: EVQLVESGGDLVQPGRSMKLSCAASGFTFSNYYMAWVRQAPTKGLEWVASISTGGVNTYYRDSVKGRFTISRDNAKNNLYLQMDSLRSEETATYYCARHTTADYFYGIYFALDAWGQGTSVTVSS
# VL: QFTLTQPKSVSGSLRSTITIPCERSSGDIGDSYVNWYQQHLGRPPLNVIYADVQRPSEVSDRFSGSIDSSSNSASLTITNLQMDDEADYFCQSYDTNIDIIFGGGTKLTVLR
# notes: as for B23
# B25: ch1822 (antibody, human IgG4 S228P, kappa, F234A L235A, V domains shown)
# VH: B24 VH with Q3R, L11F, M18V, A49G, K76E, N77S, N78T, A102P, F105H, L112M
# VL: B24 VL with F2V, D31E, L46I, V53D, M83V, T96S, N97S, I101F
# notes: as for B23
# B26: ch1810 (antibody, human IgG4 S228P, kappa, F234A L235A, V domains shown)
# VH: QVQLQQSGTELARPGTSVTLSCKASGYTFTNYAISWVKQRTGQGLEWIGEIYPTSGNTYYNEKFKGKATLTADRSSKTMYMELRSLTSVDSAVYFCASGVITTVVSTDYFDYWGQGSPLTVSS
# VL: DIQMTQIPSSLSVSLGDRVTISCRASLDISNYLNWYQLKPDGTVKLLIYYTSTLHSGVSSRFSGSGSGTEYSLTISNLEQEDIATYFCQQGNMVPYTFGGGTKLEIKR
# Target: T1, human GCGR (full-length glucagon receptor of 477 amino acids) (human, UniProt P47871 26-477)
# T1 sequence (P47871 26-477 limits assumed): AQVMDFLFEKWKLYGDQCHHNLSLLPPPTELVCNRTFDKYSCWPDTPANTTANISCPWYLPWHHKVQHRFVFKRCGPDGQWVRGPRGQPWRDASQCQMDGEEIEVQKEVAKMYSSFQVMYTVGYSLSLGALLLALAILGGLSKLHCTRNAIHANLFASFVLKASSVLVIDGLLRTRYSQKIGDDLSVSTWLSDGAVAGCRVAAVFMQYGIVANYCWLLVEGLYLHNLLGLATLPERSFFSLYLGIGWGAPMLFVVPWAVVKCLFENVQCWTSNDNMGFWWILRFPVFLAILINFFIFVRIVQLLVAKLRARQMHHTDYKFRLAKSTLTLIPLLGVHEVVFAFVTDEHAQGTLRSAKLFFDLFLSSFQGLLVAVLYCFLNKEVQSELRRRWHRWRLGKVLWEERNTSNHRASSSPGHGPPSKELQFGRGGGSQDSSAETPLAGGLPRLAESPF
# Assay: cell-based or functional assay
Binder,IC50 [nM],Imax [%]
B1,191,91.8
B2,137,98.5
B3,110,96.7
B4,140,100
B5,79,100
B6,77.5,100
B7,73,100
B8,85.9,100
B9,76.7,100
B10,88.7,100
B11,86.9,100
B12,189,83.2
B13,106,100
B14,192,95.4
B15,138,99.1
B16,216,86.4
B17,157,100
B18,119,100
B19,133,100
B20,125,90.4
B21,95.6,97.4
B22,91.3,99.6

# Target: T2, Mouse GCGR (mouse, UniProt Q61606 27-485)
# T2 sequence (Q61606 27-485): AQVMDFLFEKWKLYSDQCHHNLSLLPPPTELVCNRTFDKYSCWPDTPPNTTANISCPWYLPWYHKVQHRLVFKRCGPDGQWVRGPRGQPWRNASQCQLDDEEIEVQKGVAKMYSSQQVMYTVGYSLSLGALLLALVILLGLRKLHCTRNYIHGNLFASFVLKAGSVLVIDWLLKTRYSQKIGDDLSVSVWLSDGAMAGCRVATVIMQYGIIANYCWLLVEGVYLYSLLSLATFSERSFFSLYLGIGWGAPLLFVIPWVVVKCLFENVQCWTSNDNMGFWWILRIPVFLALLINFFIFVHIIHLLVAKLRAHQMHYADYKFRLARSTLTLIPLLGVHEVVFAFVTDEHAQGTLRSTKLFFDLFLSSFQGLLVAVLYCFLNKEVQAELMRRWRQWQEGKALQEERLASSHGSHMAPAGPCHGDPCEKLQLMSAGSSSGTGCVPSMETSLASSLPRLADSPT
# Assay: cell-based or functional assay
Binder,IC50 [nM],Imax (%)
B23,24.7,93
B24,12.8,96
B25,16,87

# Target: T1, human GCGR (full-length glucagon …)
# Assay: cell-based or functional assay
# Remark: another data set of the same source
Binder,IC50 [nM],Imax [%]
B23,79.3,100
B26,72.5,100
B24,59.8,83
B25,62.5,59

# Target: T2, Mouse GCGR
# Assay: cell ELISA on fixed CHO cells overexpressing GCGR
# Description: (§1) The expression levels of GCGR were detected after two weeks of pressure screening, After the GCGR-overexpressing cells were fixed to the bottom of 96-well plate, the antibodies were added and the signal strength was used to determine the binding activity of the antibody to GCGR overexpressing CHO cells. The binding abilities of the antibody to the three species of GCGRs were detected with the same binding assay. As an example, the binding of the GCGR antibodies to human GCGR was detected by an assay specifically described as follows:
# (§2) The cells were seeded in a 96-well plate at a density of 0.9-1.0×10⁶/ml, 100 μl/well and cultured overnight. The supernatant was discarded, the plate was washed three times with PBS, 100 μl/well of cell immune fixed solution (Beyotime, Cat No. P0098) was added and fixed for an hour at room temperature, and washed four times with PBS. The liquid was discarded, 200 μl/well blocking solution (5% skim milk (BD skim milk, Cat Wo. 232100) diluted with PBS) was added, and incubated in an incubator at 37° C. for 3 hours for blocking. After the blocking was finished, the blocking solution was discarded, the plate was washed 3 times with PBST buffer (PBS comprising 0.05% tweenW-20, pH7.4), 50 μl/well of various concentrations of each of the test antibodies (antibodies purified from hybridoma, chimeric antibodies or humanized antibodies) diluted with sample dilution solution were added, and incubated in an incubator at 37° C. for 2 hours. After the incubation was finished, the plate was washed 3 times with PBST, 50 μl/well of HRP-labeled goat anti-mouse secondary antibody (JacksoW ImmuWo Research, Cat No. 115-035-003) or goat anti-human secondary antibody (JacksoW ImmuWo Research, Cat Wo. 109-035-003) diluted with sample dilution solution was added, and incubated at 37° C. for 1 hour. The plate was washed 3 times with PBST, 50 μl/well of TMB chromogenic substrate (KPL, Cat Wo. 52-00-03) was added, incubated at room temperature for 10 min, and 50 μl/well of 1M H₂SO4 was added to stop the reaction. The absorbance value was read by a microplate reader (Thermo scientific Multiskan MK3) at a wavelength of 450 nm, and the data was analyzed with GraphPad Prism 5. The binding of GCGR chimeric antibodies to GCGR-overepressing CHO cells was calculated as EC50 value.
row,Binder,EC50 [nM]
1,B23,0.718
2,B26,0.442
3,B24,0.164
4,B25,0.568

# Target: T3, Cynomolgus monkey GCGR (cynomolgus monkey)
# T3 construct: whole, on cells; also called cynomolgus GCGR
# Assay: cell ELISA on fixed CHO cells overexpressing GCGR
# Description: as §1, §2
row,Binder,EC50 [nM]
1,B23,0.213
2,B26,0.248
3,B24,0.297
4,B25,0.428

# Target: T1, human GCGR (full-length glucagon …)
# Assay: cell ELISA on fixed CHO cells overexpressing GCGR
# Description: as §1, §2
row,Binder,EC50 [nM]
1,B23,0.117
2,B26,0.117
3,B24,0.193
4,B25,0.383
